The record followed here is CN117466995A (YIDAO BIOTECHNOLOGY SUZHOU CO LTD, dated 2024).

Assay [1] concerns the target T1, HPV45型衣壳蛋白L1病毒样颗粒(VLP)抗原 (HPV 45型) (UniProt P36741).
T1 sequence: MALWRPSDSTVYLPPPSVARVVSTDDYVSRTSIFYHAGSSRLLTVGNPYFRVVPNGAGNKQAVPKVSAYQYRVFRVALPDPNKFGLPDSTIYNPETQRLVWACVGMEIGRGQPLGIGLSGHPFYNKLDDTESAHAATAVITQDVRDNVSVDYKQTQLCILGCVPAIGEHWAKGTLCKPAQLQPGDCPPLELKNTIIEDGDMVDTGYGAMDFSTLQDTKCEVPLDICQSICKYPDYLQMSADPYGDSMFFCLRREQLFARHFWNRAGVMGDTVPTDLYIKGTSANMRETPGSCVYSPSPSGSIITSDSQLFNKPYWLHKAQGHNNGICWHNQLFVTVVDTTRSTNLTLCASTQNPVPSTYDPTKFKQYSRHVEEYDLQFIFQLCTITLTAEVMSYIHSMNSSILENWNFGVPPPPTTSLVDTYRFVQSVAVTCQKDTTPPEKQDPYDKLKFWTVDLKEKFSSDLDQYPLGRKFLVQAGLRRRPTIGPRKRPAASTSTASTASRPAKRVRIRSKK
Nature of the assay: sandwich ELISA, rabbit pAb R163 capture 1:500, mAb 1:20000; antigen 13.3 ug/ml, 2.5-fold series, step 7. (In general: An ELISA detects its analyte on a solid surface through an enzyme-linked reagent.)

The target in assay [2] is T1, HPV45型衣壳蛋白L1病毒样颗粒(VLP)抗原 (HPV 45型). In words: sandwich ELISA, rabbit pAb R163 capture 1:500, mAb 1:20000; column 12, antigen amount not stated (only 11 dilutions described).
The target is the same in assay [3]. In words: sandwich ELISA, rabbit pAb R163 capture 1:500, mAb 1:20000; antigen 13.3 ug/ml, 2.5-fold series, step 8.
The next assay deals with T2, HPV 33 VLP抗原 (HPV 33, UniProt P06416 1-499).
T2 sequence: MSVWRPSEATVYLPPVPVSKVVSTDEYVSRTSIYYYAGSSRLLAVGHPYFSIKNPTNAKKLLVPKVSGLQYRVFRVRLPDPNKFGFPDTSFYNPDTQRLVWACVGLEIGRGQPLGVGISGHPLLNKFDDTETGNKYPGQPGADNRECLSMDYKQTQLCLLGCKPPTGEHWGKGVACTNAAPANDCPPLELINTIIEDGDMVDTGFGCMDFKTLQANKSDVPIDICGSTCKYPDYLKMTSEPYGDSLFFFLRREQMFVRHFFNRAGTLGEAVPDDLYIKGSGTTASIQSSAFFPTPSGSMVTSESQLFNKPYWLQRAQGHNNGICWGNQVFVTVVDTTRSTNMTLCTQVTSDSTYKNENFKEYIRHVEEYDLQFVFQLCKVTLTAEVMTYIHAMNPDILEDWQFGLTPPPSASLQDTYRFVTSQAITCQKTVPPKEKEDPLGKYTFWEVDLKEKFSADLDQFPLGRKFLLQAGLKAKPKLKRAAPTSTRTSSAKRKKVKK
In words: direct ELISA on coated VLP antigens.

For a further assay, the target named is T3, HPV 16 VLP抗原 (HPV 16, UniProt P03101 1-505).
T3 sequence: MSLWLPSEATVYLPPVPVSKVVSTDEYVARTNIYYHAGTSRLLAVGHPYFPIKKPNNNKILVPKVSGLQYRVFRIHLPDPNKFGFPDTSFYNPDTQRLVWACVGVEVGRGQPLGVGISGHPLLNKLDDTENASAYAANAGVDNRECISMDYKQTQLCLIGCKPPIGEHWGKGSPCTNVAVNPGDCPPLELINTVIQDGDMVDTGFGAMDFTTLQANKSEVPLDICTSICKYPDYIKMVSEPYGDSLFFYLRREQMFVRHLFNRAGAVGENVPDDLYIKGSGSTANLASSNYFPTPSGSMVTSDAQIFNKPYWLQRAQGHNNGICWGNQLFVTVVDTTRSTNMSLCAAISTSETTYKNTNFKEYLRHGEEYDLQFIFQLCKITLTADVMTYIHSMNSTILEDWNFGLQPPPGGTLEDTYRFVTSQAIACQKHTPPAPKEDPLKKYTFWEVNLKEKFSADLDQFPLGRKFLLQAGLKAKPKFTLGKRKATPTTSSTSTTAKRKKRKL
In words: direct ELISA on coated VLP antigens.

The next assay addresses T4, HPV11 VLP抗原 (HPV11, UniProt P04012 1-501).
T4 sequence: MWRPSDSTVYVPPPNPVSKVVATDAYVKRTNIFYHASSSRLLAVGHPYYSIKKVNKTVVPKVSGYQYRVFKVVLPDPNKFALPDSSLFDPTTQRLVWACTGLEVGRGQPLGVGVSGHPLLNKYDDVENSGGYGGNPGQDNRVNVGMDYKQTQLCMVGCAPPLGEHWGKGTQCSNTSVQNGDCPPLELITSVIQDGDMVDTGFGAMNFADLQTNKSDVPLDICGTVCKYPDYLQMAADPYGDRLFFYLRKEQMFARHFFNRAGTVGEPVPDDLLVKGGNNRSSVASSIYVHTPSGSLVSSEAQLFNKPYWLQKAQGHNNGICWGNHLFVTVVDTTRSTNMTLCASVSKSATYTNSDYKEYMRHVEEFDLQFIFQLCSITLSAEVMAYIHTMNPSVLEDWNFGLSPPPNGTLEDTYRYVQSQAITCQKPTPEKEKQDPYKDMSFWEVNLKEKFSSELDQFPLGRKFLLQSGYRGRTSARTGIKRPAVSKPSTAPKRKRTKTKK
In words: direct ELISA on coated VLP antigens.

Another assay deals with T5, HPV 31 VLP抗原 (HPV 31, UniProt P17388 1-504).
T5 sequence: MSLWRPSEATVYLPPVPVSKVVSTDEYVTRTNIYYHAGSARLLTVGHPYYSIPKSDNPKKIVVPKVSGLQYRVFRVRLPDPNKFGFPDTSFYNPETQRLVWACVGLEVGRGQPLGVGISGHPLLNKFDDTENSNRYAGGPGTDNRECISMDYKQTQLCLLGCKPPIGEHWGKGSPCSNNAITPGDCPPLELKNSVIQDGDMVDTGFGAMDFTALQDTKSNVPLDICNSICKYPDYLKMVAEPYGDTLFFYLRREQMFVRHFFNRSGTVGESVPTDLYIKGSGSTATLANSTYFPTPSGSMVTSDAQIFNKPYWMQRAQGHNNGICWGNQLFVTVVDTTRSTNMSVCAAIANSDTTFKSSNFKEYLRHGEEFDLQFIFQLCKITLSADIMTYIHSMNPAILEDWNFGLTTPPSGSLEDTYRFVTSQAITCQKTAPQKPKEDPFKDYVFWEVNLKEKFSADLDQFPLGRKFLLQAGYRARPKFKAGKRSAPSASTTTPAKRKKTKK
Nature of the assay: direct ELISA on coated VLP antigens.

Values joined by “and” are separate entries in the source; they are usually repeats but may differ in a detail not shown here. Equal values may be shown once.

B1: 杂交瘤细胞株7A5(CGMCC NO:45706)分泌的鼠源单克隆抗体 (antibody, V domains shown)
VH: QPGAELVKPGASVKLSCKASGYTFTSYWMHWVKQRPGQGLEWIGEINPSNGHTNYNEKFKSKATLTVDKSSSTAYMQLSSLTSEDSAVYYCAPCYGSSYDYYAMDYWGQGTSVTVSS
VL: DIVLTQSPASLAVSLGQRATISCRASQSVSTSSYSYMHWYQQKPGQPPKLLIKYASNLESGVPARFSGSGSGTDFTLNIHPVEEEDTATYYCQHSWEIPYTFGGGTKLEIK
notes: also called 鼠单抗7A5; 抗体7A5
Turning to B1, the OD is 0.379 OD and 0.358 OD in assay [1]; 0.067 OD and 0.064 OD in assay [2]; 0.175 OD and 0.189 OD in assay [3]. Moreover, the binding result in the assay with HPV 33 VLP抗原, with HPV 16 VLP抗原, with HPV11 VLP抗原 and with HPV 31 VLP抗原 was “no binding” throughout.

B2: 杂交瘤细胞株11G1(CGMCC NO:45707)分泌的鼠源单克隆抗体 (antibody, V domains shown)
VH: QVQLQQPGAELVKPGASVKLSCKASGYTFTSYWMHWVKRRPGQGLEWIGEINPSNGLTNYNEKFKSKGTLTVDKSSSAAFMHLSSLTSEDSAVYYCARFHGSDLYAMDYWGQGTSVTVSS
VL: B1 VL
notes: also called 鼠单抗11G1; 抗体11G1
B2: the OD in assay [1] was 0.218 OD and 0.206 OD; in assay [2] it was 0.045 OD and 0.05 OD; in assay [3] it was 0.115 OD and 0.108 OD. Moreover, the binding result in the assay with HPV 33 VLP抗原, in the assay with HPV 16 VLP抗原, with HPV11 VLP抗原 and with HPV 31 VLP抗原 was “no binding” in each case.
